Source: paper PMC6163455, “β-Lactamase Tools for Establishing Cell Internalization and Cytosolic Delivery of Cell Penetrating Peptides” (Biomolecules, 2018)

Biological target: T1, SpyCatcher_β-lactamase protein ( | E. coli)
T1 construct: N-terminal leader as printed; TEM-1 β-lactamase of Escherichia coli without its signal peptide; C-terminal tail as printed; Printed mass 42.4 kDa; also called SpyC_β-lactamase; source: E. coli BL21 (DE3) Gold, purified (IMAC, SEC)
Assay: SpyTag/SpyCatcher covalent conjugation (isopeptide bond), analysed by SDS-PAGE; peptide:protein ratio 1.125:1 or 1.25:1, 50 µM SpyC_BLA; 50 mM HEPES, 200 mM NaCl, pH 7.0; 2 h at room temperature and/or overnight at 4 °C; conjugation efficiencies analysed on 4-12% NuPAGE Bis-Tris gels; conjugates then used for uptake into CHO-K1 and T47D cells
Details: both partners purified

Row | Binder | binding result
1 | GRKKRRQRRRGASAHIVMVDAYKPTKG (canonical CPP TAT; source: synthetic peptide (Pepscan or Mimotopes)) [TAT_SpyT] | binds
2 | LFVDKATPQIYYTPSESVTVKSKGKNRRKKSGASAHIVMVDAYKPTKG (phylomer CPP 1788, discovered from phylomer peptide libraries; source: synthetic peptide (Pepscan or Mimotopes)) [1788_SpyT] | binds
3 | KKKKQPPKPKKPKTQEKKKKQPPKPKRGASAHIVMVDAYKPTKG (phylomer CPP 1746c27, discovered from phylomer peptide libraries; source: synthetic peptide (Pepscan or Mimotopes)) [1746c27_SpyT] | binds
4 | 1746_SpyT (source: synthetic peptide (Pepscan or Mimotopes)) peptide: PLKPKKPKTQEKKKKQPPKPKKPKTQEKKKKQPPKPKRGASAHIVMVDAYKPTKG | binds
5 | RKQKSLQTKLAENPPVPRKKRQSRPRWKQWLQKGASAHIVMVDAYKPTKG (phylomer CPP 0084, discovered from phylomer peptide libraries; source: synthetic peptide (Pepscan or Mimotopes)) [0084_SpyT] | binds
6 | PSSTPATNVARPRLNPIRGHKFALAVPNSRTRGASAHIVMVDAYKPTKG (phylomer CPP 0167, discovered from phylomer peptide libraries; source: synthetic peptide (Pepscan or Mimotopes)) [0167_SpyT] | binds
7 | 0169_SpyT (phylomer CPP 0169, discovered from phylomer peptide libraries; source: synthetic peptide (Pepscan or Mimotopes)) peptide: PLTQRTLQRGKKPKQRQNWKKARTSSAKTAPKTVVSRTTSQRKGASAHIVMVDAYKPTKG | binds
8 | 1869_SpyT (phylomer CPP 1869, discovered from phylomer peptide libraries; source: synthetic peptide (Pepscan or Mimotopes)) peptide: PPHPRPLPAPAQSRKKQKGRAGRGHEKTGASVLRGPQKPHPLPAQLRGASAHIVMVDAYKPTKG | binds
